Experimental findings from article PMC9799976 are described below.

In assay [1] the target is full-length human dynein complex (heavy chain with SNAP-tag, IC, LIC, Tctex, LC8, Robl) (human) (UniProt Q14204). Kind of assay: single-molecule TIRF microscopy; DDJ complexes assembled with equal amounts of dynein labeled with TMR and Alexa 647, without N-DCX; two-colour colocalisation of moving molecules.
Assay [2] concerns the target fluorescently labelled, biotinylated, taxol-stabilised microtubules for the TIRF assays. Kind of assay: single-molecule TIRF microscopy; TIRF landing assay: MTs immobilised on the coverslip, GFP-tagged single-head dynein in motility buffer, 2 mM AMPPNP, with DCX. Also on record: landing rate on MTs: unit not given here.
The target is the same in assay [3]. The assay can be described thus: single-molecule TIRF microscopy; TIRF landing assay: MTs immobilised on the coverslip, GFP-tagged single-head dynein in motility buffer, 2 mM ADP and 0.05 U/µl hexokinase, without DCX. Also on record: landing rate on MTs: unit not given here.
For assay [4] the target is unchanged.
The target is the same in assay [5]. The assay can be described thus: single-molecule TIRF microscopy; TIRF landing assay: MTs immobilised on the coverslip, GFP-tagged single-head dynein in motility buffer, 2 mM ATP, without DCX. Also on record: landing rate on MTs: unit not given here.
Assay [6] shares this target. Kind of assay: single-molecule TIRF microscopy; TIRF landing assay: MTs immobilised on the coverslip, GFP-tagged single-head dynein in motility buffer, 2 mM ATP, with DCX. The arrangement: landing rate on MTs: unit not given here.
The target is the same in assay [7]. The assay can be described thus: single-molecule TIRF microscopy; TIRF landing assay: MTs immobilised on the coverslip, GFP-tagged single-head dynein in motility buffer, 2 mM AMPPNP, without DCX. The arrangement: landing rate on MTs: unit not given here.
For assay [8] the target is unchanged. The assay can be described thus: single-molecule TIRF microscopy; TIRF landing assay: MTs immobilised on the coverslip, GFP-tagged single-head dynein in motility buffer, 2 mM ADP and 0.05 U/µl hexokinase, with DCX. The arrangement: landing rate on MTs: unit not given here.

Chain of fluorescently labelled, biotinylated, taxol-stabilised microtubules for the TIRF assays (chain, as listed by the source, chain 1 of 2): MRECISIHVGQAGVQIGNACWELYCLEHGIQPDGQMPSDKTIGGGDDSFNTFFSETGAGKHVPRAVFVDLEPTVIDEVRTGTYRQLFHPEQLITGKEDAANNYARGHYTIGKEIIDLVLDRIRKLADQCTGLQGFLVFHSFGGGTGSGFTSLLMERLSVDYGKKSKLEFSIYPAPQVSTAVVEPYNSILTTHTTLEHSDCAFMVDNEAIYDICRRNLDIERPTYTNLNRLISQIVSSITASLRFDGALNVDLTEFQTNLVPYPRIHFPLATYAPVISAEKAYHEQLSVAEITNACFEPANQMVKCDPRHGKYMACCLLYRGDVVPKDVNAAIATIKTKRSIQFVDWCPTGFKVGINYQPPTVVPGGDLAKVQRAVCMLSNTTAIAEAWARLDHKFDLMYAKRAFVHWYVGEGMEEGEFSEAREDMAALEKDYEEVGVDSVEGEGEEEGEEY
Chain of fluorescently labelled, biotinylated, taxol-stabilised microtubules for the TIRF assays (chain, as listed by the source, chain 2 of 2): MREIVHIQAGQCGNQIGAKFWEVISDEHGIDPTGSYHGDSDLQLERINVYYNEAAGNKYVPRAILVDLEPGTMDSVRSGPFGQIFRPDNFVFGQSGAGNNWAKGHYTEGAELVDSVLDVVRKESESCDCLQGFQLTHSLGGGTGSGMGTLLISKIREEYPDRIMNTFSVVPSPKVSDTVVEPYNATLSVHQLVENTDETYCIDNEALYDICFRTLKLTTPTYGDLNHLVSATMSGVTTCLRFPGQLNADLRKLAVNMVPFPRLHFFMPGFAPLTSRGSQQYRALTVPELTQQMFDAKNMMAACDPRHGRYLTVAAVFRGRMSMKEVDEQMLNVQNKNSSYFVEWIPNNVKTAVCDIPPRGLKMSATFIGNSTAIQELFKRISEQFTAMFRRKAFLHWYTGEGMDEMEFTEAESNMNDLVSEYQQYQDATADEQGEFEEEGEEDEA

As to “full-length human dynein complex (heavy chain with SNAP-tag, IC, LIC, Tctex, LC8, Robl) (from UniProt Q14204 1-4646; Q13409 1-638; O43237 1-492; P63172 1-113; P63167 1-89; Q9NP97 1-96)”, the fraction of colocalization of two differently labeled dyneins in moving DDJ complexes in assay [1] came out at 42%.

Consider “tail-truncated single-headed human dynein (amino acids 1320-4646 of DYNC1H1), N-terminal GFP, Q14204 1320-4646”, for which the dwell time on MTs (median) in assay [2] was 1.2 s; in assay [3] it was 1.4 s; in assay [5] it was 1 s; in assay [6] it was 1.1 s; in assay [7] it was 1.1 s; in assay [8], 1.3 s. In addition, the landing rate on MTs in assay [2] came out at 1.1; in assay [3], 2.1; in assay [5], 1.6; in assay [6], 1.4; in assay [7], 2.1; in assay [8], 1.6. The substance further gave a velocity of MT gliding powered by surface-bound single-headed dynein with 10 nM DCX (without DCX: 0.59 [0.56, 0.63] µm/s) in assay [4] of 0.55 µm/s.
